Data on six molecules can be found in patent publication US20130224224A1 (Boehringer Ingelheim, published 2013).

Changes are numbered by the printed parent chain.

In assay [1] the target is T1, human CX3CR1 (human, UniProt P49238 1-355).
T1 construct: overexpressed on CHO, BA/F3 or HEK293T cells; also called huCX3CR1; hCX3CR1
T1 sequence: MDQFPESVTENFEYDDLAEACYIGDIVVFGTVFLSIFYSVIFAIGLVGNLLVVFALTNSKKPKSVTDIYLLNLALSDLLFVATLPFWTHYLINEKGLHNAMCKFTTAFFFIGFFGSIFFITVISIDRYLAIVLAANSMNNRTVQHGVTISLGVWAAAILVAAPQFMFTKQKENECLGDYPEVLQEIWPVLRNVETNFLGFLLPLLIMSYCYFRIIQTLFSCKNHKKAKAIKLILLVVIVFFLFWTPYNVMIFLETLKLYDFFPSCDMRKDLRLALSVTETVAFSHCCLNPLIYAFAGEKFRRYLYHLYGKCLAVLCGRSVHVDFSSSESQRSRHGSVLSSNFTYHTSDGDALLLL
Description: A647-fractalkine competition FACS, HEK293-huCX3CR1. An excerpt:
(§1) Periplasmic extracts were screened in a human CX3CR1/human Fractalkine FACS competition assay to assess the blocking capacity of the expressed VHHs. Human CX3CR1 was presented on CHO cells overexpressing CX3CR1. Both a setup using cells harvested from an actively growing culture and a setup using frozen cells was used. As a detection reagent labeled fractalkine was used (R&D Systems, Minneapolis, Minn., USA) labeled with alexa647 (A647-Fractalkine) at a degree of labeling of 1. To setup the assay, first a titration series of the labeled fractalkine was performed on the CHO-huCX3CR1 cells in order to determine the EC50 value for binding. Initially screening was performed at a higher concentration of fractalkine (3 nM) to increase the assay robustness. To increase the sensitivity of the screening to a maximum, the EC30 concentration (1 nM) was chosen for subsequent screening. In brief 50 μl of periplasmic extract was added to 6 nM labeled fractalkine (50 μ;) and 200 000 CHO-huCX3CR1 cells. After one hour incubation at 4 C, cells were washed three times before read out was performed on a FACS Array (Becton Dickinson). First a gate was set on the intact cells as determined from the scatter profile. Next, dead cells were gated out by their fluorescence profile from the PI stain (Sigma, St Louis, US). The fluorescence profile from the alexa647 label was determined for each sample and used for calculation of blocking capacity. As controls, conditions were taken along where there was no VHH present in the peri extract or a known irrelevant VHH and samples were included where excess cold fractalkine was included. For each sample the percentage block was determined using the control samples to determine the assay window.
(§2) The blocking capacity towards the ligand fractalkine of the VHHs was evaluated in a human CX3CR1 competition FACS as outlined in Example 4. Either CHO-huCX3CR1 cells, BA/F3-huCX3CR1 cells or transiently transfected HEK293T cells were used. The amount of labeled ligand used in the different competition setups was also varied. The IC₅₀ values for VHHs blocking the interaction of human fractalkine to human CX3CR1 are depicted in Table 19.

The target of assay [2] is T2, cynomolgus CX3CR1 (cynomolgus, UniProt P49238 1-355 (human entry)).
T2 construct: transiently expressed on HEK293T cells; also called cyCX3CR1; cyno CX3CR1
T2 chain: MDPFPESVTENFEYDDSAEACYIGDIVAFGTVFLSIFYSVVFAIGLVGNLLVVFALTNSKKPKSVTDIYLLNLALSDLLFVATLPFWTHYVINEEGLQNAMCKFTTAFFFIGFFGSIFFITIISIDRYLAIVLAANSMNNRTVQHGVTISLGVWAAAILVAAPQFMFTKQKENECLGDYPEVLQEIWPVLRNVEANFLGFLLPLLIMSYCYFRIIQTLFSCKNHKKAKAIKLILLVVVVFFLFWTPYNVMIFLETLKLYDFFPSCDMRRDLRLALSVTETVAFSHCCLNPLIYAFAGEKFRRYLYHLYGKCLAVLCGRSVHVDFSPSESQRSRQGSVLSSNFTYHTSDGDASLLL
Kind of assay: A647-fractalkine competition FACS, HEK293T cynomolgus CX3CR1.
From the text: as §1
(§3) For later identified VHHs, a human Fractalkine competition FACS was set up using human or cynomolgus CX3CR1 expressed in HEK293T cells. Both the human and the cynomolgus receptor was transiently transfected in HEK293T cells and transfections were matched by the binding of the labeled ligand, human fractalkine. The competition was evaluated using the EC30 concentration of fractalkine and as such obtained IC50 values are a good estimate of the Ki value, a measure for affinity (Table 22). The experiment was performed as described in Example 4.

Assay [3] has as its target T1, human CX3CR1. Description: cell-based or functional assay.
The target in assay [4] is T1, human CX3CR1. Kind of assay: fractalkine competition FACS.
In assay [5] the target is T1, human CX3CR1. Description: fractalkine competition FACS. This is another data set of the same source.
Assay [6] deals with T1, human CX3CR1. Kind of assay: A647-fractalkine competition FACS, HEK293T human CX3CR1.
From the text: as §1, §3

Assay [7] addresses T2, cynomolgus CX3CR1. Description: A647-fractalkine competition FACS, cynomolgus against human CX3CR1.
From the text: as §1, §3

Assay [8] addresses T1, human CX3CR1. Description: cell-based or functional assay. This is another data set of the same source.
In assay [9] the target is T1, human CX3CR1. Kind of assay: competition FACS, BA/F3-huCX3CR1; competitor alexa647-labeled 66B02. An excerpt:
A competitive binding experiment was setup in order to determine whether the VHHs bind overlapping epitopes on CX3CR1. For this, the VHH 66B02 labeled with alexa647 was used in a competition FACS on the BA/F3 cells expressing huCX3CR1. Representative VHHs from the three functional families were used as competitors for the binding of the labeled 66B02.

For assay [10], the target named is T1, human CX3CR1. Kind of assay: fractalkine competition FACS. The source holds these as a separate data set.
Assay [11] deals with T1, human CX3CR1. Description: A647-fractalkine competition FACS, CHO-huCX3CR1.
From the text: as §1, §2

In assay [12] the target is T1, human CX3CR1. Description: periplasmic extract, A647-fractalkine competition FACS, CHO-huCX3CR1.
From the text: as §1

Assay [13] concerns the target T1, human CX3CR1. Description: A647-fractalkine competition FACS, BA/F3-huCX3CR1.
From the text: as §1, §2

Assay [14] concerns the target T1, human CX3CR1. Kind of assay: FACS binding on human CX3CR1 cells, anti-c-myc detection. As to the method: Initially, a FACS based binding setup was used to evaluate the cynomolgus cross reactivity. For this, the VHHs were incubated with the respective cells for 30 minutes at 4° C. followed by three wash steps and subsequently incubated with the detection reagents. As detection, a mouse anti-cmyc antibody (Serotec, MCA2200) followed by a goat anti-mouse antibody coupled to PE (Jackson 115-116-071) was used, each incubation for 30 minutes at 4° C., followed by three wash steps.

B1: CX3CR1BIIPMP66B02 (VHH)
VHH: EVQLVESGGGSVQAGESLRLSCAASGSIFSSNAMAWYRQAPGKRRDLVAAINSVGVTKYADSVKGRFTISRDNAKNTVYLQMNSLKPEDTAVYYCTSDPRRGWDTRYWGQGTQVTVSS
modifications: alexa647 label where used as labeled competitor (Table 23)
notes: also called CX3CR1BII66B02; C100CX3CR1BII66B02; not shown: C-terminal c-myc and His6 tags
Regarding B1, the “% block” value was 102% in the assay with human CX3CR1 [1]; 97% in the assay with cynomolgus CX3CR1 [2]; 98% with human CX3CR1 [4]; 101% with human CX3CR1 [5]; 102% with human CX3CR1 [6]; 100% with human CX3CR1 [9]. In addition, the “% block” value in the assay with human CX3CR1 [10] worked out at 98%. Besides, the IC50 in the assay with human CX3CR1 [1] was 2.5 nM; with cynomolgus CX3CR1 [2] it was 19 nM; with human CX3CR1 [4], 2.5 nM; with human CX3CR1 [5], 2.6 nM; with human CX3CR1 [6] it was 2.5 nM; in the assay with human CX3CR1 [9] it was 1.5 nM. Further, in the assay with human CX3CR1 [10], the IC50 stood at 2.5 nM. Besides, in the assay with human CX3CR1 [3], the “% block, fractalkine induced chemotaxis” value worked out at 87%. In addition, in the assay with human CX3CR1 [3], the “IC50, fractalkine induced chemotaxis” value stood at 20 nM. Moreover, the “ratio (cynomolgus/human IC50)” value in the assay with cynomolgus CX3CR1 [7] was 7.5. The “% block, ligand induced chemotaxis” value with human CX3CR1 [8] came to 91%. Moreover, the “IC50, ligand induced chemotaxis” value with human CX3CR1 [8] is 36 nM.

B2: CX3CR1BII00306 (VHH)
VHH: B1 VHH with E1D, S11L, A14P, E16G, N32T, N52S, A74S, K86R, Q113L
notes: also called CX3CR1BII306
Turning to B2, in the assay with human CX3CR1 [4], the “% block” value worked out at 97% and the IC50 stood at 1.7 nM. Further, in the assay with human CX3CR1 [8], the “% block, ligand induced chemotaxis” value was found to be 95% and the “IC50, ligand induced chemotaxis” value stood at 63 nM.

B3: CX3CR1BIIPMP54G3 (VHH)
VHH: B1 VHH with R44Q, A50L, V56I, Q113L
notes: also called 54G03; not shown: C-terminal c-myc and His6 tags
As for B3, the “% block” value with human CX3CR1 [11] was found to be 107%; in the assay with human CX3CR1 [1], 89%; with cynomolgus CX3CR1 [2], 89%; in the assay with human CX3CR1 [12], 74.7%; in the assay with human CX3CR1 [6], 89%; with human CX3CR1 [13], 98%. Moreover, the IC50 turned out to be 56 nM in the assay with human CX3CR1 [11]; 270 nM in the assay with human CX3CR1 [1]; 470 nM with cynomolgus CX3CR1 [2]; 270 nM in the assay with human CX3CR1 [6]; 98 nM with human CX3CR1 [13]. The “% block, fractalkine induced chemotaxis” value with human CX3CR1 [3] was determined as 40%. Moreover, the “ratio (cynomolgus/human IC50)” value with cynomolgus CX3CR1 [7] was found to be 1.74.

B4: CX3CR1BII00308 (VHH)
VHH: B1 VHH with E1D, S11L, A14P, E16G, A74S, K86R, Q113L
notes: also called CX3CR1BII308
B4: in the assay with human CX3CR1 [4], the “% block” value was 97% and the IC50 was 1.6 nM. Further, in the assay with human CX3CR1 [8], the “% block, ligand induced chemotaxis” value was 89% and the “IC50, ligand induced chemotaxis” value turned out to be 44 nM.

B5: CX3CR1BII00307 (VHH)
VHH: B1 VHH with E1D, S11L, A14P, E16G, N32T, N52S, S53T, A74S, K86R, Q113L
notes: also called CX3CR1BII307
For the molecule B5, in the assay with human CX3CR1 [4], the “% block” value worked out at 97% and the IC50 was determined as 1.9 nM. Besides, in the assay with human CX3CR1 [8], the “% block, ligand induced chemotaxis” value stood at 100% and the “IC50, ligand induced chemotaxis” value is 63 nM.

B6: CX3CR1BIIPMP11H11 (VHH)
VHH: EVQLVESGGGLVQAGGSLRLSCVASGRTFSSYAMGWFRQAPGKERAFVAGISGSASRKYYADSVKGRFTVSRDNARNTVYLQMNSLKPEDTAVYYCAASNSYPKVQFDYYGQGTQVTVSS
notes: family 9; also called CX3CR1BII11H11; not shown: C-terminal c-myc and His6 tags
B6: the “% block” value in the assay with human CX3CR1 [11] worked out at 100%; with human CX3CR1 [12], 99%; with human CX3CR1 [13] it was 100%; with human CX3CR1 [9], 100%. For the same molecule, the IC50 was 17 nM in the assay with human CX3CR1 [11], 8.1 nM with human CX3CR1 [13] and 4.9 nM with human CX3CR1 [9]. For the same molecule, the “% block, fractalkine induced chemotaxis” value in the assay with human CX3CR1 [3] is 89%. For the same molecule, the “IC50, fractalkine induced chemotaxis” value with human CX3CR1 [3] was found to be 200 nM. Moreover, the EC50 in the assay with human CX3CR1 [14] was found to be 0.8 nM.

For orientation: IC50 means the point on the concentration scale where inhibition reaches its midpoint. Low values mean inhibition by little substance, high ones a need for much substance. The EC50 is the concentration needed to bring the measured effect to its halfway point.
